Experiments:
Assay in all cases: negative-staining electron microscopy
[1] = biological target: L60V-HBc capsids (Hepatitis B virus (genotype D; strain ayw)) (UniProt P03146)
[2] = biological target: F97L-HBc capsids (Hepatitis B virus (genotype D; strain ayw)) (UniProt P03146)
[3] = biological target: P5T-HBc capsids (Hepatitis B virus (genotype D; strain ayw)) (UniProt P03146)

**Q.** For “L60V-HBc capsids (from UniProt P03146 1-183) (natural protein)”, which stoichiometry N (subunits per capsid) [1] is on record?
**A.** 240

**Q.** How did the stoichiometry N (subunits per capsid) [2] turn out when “F97L-HBc capsids (from UniProt P03146 1-183) (natural protein)” was run?
**A.** 240

**Q.** How did the stoichiometry N (subunits per capsid) [3] turn out when “P5T-HBc capsids (from UniProt P03146 1-183) (natural protein)” was run?
**A.** 240

From paper PMC8145704, “Conformational Plasticity of Hepatitis B Core Protein Spikes Promotes Peptide Binding Independent of the Secretion Phenotype” (Microorganisms, 2021)
